Measurements taken from publication PMC2873776 (Biochemistry, 2010).

Molecular target: the molecule itself
Test: pulsed dipolar ESR spectroscopy

B1: Tm14C N125C homodimer, spin-labeled (domain or fragment)
chain: RRIEEVKERFVNLNRLFQELVGDFQAKSDQLVSVIQDMEKISENIMEELKKSGTNVDQIVERVKEASSQIGETLENIRSIEKLIQCIMRIARETNILALNATIEAARAGEAGKGFMIVANEVQNLSNETNEVTKQIVEKAREILESSQRSLENLEFMANLFETVGKTLQNMVRF
modifications: MTSSL nitroxide spin label on Cys125
stoichiometry N: 2
